Values quoted from earlier work, collected in publication PMC7290751.
pKd: −log10 of the molar value.

Assays:
Kv1.2 (Homo sapiens) = Kv1.2 (Homo sapiens) (UniProt P16389)
Kv1.3 (Homo sapiens) = Kv1.3 (Homo sapiens) (UniProt P22001)
Chain of UniProt P22001 (P22001 whole entry): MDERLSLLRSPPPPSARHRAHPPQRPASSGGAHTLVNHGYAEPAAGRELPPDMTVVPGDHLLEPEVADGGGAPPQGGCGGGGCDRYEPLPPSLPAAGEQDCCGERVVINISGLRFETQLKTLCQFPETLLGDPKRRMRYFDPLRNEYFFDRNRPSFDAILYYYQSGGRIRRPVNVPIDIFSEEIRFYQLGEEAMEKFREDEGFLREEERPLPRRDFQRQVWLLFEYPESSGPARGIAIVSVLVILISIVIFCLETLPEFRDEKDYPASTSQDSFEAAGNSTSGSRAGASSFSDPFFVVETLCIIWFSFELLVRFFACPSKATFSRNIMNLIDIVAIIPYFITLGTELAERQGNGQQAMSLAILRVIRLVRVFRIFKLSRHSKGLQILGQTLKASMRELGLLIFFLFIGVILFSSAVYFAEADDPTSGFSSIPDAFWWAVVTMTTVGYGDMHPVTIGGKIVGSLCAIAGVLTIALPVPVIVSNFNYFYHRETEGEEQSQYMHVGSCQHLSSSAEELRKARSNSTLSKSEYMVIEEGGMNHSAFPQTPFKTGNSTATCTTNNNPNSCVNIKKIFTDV

Chain of UniProt P16389 (P16389 whole entry): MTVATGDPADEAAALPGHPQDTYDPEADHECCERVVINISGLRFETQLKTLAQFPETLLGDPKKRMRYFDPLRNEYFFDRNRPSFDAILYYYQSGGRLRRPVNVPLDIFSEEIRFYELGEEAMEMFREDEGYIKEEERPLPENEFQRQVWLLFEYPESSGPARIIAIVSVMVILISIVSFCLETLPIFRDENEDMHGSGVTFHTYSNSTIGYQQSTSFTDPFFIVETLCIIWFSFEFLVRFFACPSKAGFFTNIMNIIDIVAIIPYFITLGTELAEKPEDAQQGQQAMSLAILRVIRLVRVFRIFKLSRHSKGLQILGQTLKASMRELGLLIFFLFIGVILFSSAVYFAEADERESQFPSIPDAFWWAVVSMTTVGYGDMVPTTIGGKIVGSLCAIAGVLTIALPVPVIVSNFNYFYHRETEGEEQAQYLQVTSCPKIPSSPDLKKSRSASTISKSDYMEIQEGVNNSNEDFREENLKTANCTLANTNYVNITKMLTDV

For margatoxin (MgTx) (from UniProt P40755), the pKd (Kv1.2 (Homo sapiens)) is listed as 11.19 and the pKd (Kv1.3 (Homo sapiens)) is listed as 10.93.
